Like-named read-outs stand apart in the source and are kept apart here.

This note sets out measurements from PMC12678802, “Tudor-based proteomic strategy pan-specifically enriches and identifies protein arginine methylation” (EMBO Reports, 2025).

Experiment [1] deals with SMN Tudor domain (80-167 aa) with a C-terminal His6-tag (UniProt Q16637). The experiment in a line: ITC; 2 mM or 5 mM ligand in the syringe injected into 200 uM or 300 uM SMN Tudor in the cell; 1x PBS, 25 °C; one site model with stoichiometry (N) fixed at 1. For orientation: ITC needs no label: the signal is the heat of the interaction.
Experiment [2] has as its target T1, SMN Tudor domain (SMN) (Homo sapiens, UniProt Q16637).
T1 construct: gene SMN1; SMN Tudor domain (80–167 aa), C-terminal His6-tag
Description: isothermal titration calorimetry (ITC), […] model, N fixed at […]. The class given is binding.

Chain of SMN Tudor domain (80-167 aa) with a C-terminal His6-tag (Q16637 80-167): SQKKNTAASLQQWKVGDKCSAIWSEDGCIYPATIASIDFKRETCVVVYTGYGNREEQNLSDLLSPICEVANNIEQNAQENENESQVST
T1 sequence (Q16637 80-167): as above

One may read the Kd as the free concentration of one partner at which half of the binding sites on the other are occupied at equilibrium, for simple one-to-one binding. For “SmD1 heptapeptide AGRGRGR, residues 96–102 of SmD1”, in experiment [1], the dissociation constant Kd was above 2000 µM.

As for `CN(C)C(=N)NCCC[C@H](N)C(=O)O` [aDMA, Asymmetric dimethylarginine], in experiment [2] (read-out: KD), the Kd turned out to be 860 ± 34 µM.

Turning to “SmD1-sDMA heptapeptide AGRme2sGRGR, residues 96–102 of SmD1”, in experiment [1], the Kd came out at 375 µM and the dH is -14.5 kcal/mol.

In experiment [1], “SmD1-aDMA heptapeptide AGRme2aGRGR, residues 96–102 of SmD1” displayed a Kd of 834 µM and a dH of -8.02 kcal/mol.

Regarding `CN=C(NC)NCCC[C@H](N)C(=O)O` [sDMA, Symmetric dimethylarginine], the Kd in experiment [2] (read-out: KD) amounted to 359 ± 45 µM.

Molecule `CNC(=N)NCCC[C@H](N)C(=O)O` [MMA, Methylarginine (L-NMMA)] showed a Kd in experiment [2] of 1800 ± 322 µM.
